# What was measured:
# [1] = molecular target: hEDAR-mFc (human) (UniProt Q9UNE0); experiment: sandwich ELISA: hEDAR-mFc coated, anti-human IgG (Fc) CH2-HRP detection; EDA-A1 12.5 ng/mL, batch 7
# [2] = molecular target: hEDAR-mFc (human) (UniProt Q9UNE0); experiment: sandwich ELISA: hEDAR-mFc coated, anti-human IgG (Fc) CH2-HRP detection; EDA-A1 with hFc, nominal 6.25 ng/mL, batch 7
# [3] = molecular target: hEDAR-mFc (human) (UniProt Q9UNE0); experiment: sandwich ELISA: hEDAR-mFc coated, anti-human IgG (Fc) CH2-HRP detection; EDA-A1 with hFc, nominal 100 ng/mL, batch 7
# [4] = molecular target: hEDAR-mFc (human) (UniProt Q9UNE0); experiment: sandwich ELISA: hEDAR-mFc coated, anti-human IgG (Fc) CH2-HRP detection; EDA-A1 with hFc, nominal 12.5 ng/mL, batch 7
# [5] = molecular target: hEDAR-mFc (human) (UniProt Q9UNE0); experiment: sandwich ELISA: hEDAR-mFc coated, anti-human IgG (Fc) CH2-HRP detection; EDA-A1 with hFc, nominal 50 ng/mL, batch 7
# [6] = molecular target: hEDAR-mFc (human) (UniProt Q9UNE0); experiment: sandwich ELISA: hEDAR-mFc coated, anti-human IgG (Fc) CH2-HRP detection; EDA-A1 with hFc, nominal 3.13 ng/mL, batch 7
# [7] = molecular target: hEDAR-mFc (human) (UniProt Q9UNE0); experiment: sandwich ELISA: hEDAR-mFc coated, anti-human IgG (Fc) CH2-HRP detection; EDA-A1 100 ng/mL, batch 5
# [8] = molecular target: hEDAR-mFc (human) (UniProt Q9UNE0); experiment: sandwich ELISA: hEDAR-mFc coated, anti-human IgG (Fc) CH2-HRP detection; EDA-A1 50 ng/mL, batch 7
# [9] = molecular target: hEDAR-mFc (human) (UniProt Q9UNE0); experiment: sandwich ELISA: hEDAR-mFc coated, anti-human IgG (Fc) CH2-HRP detection; EDA-A1 100 ng/mL, batch 7
# [10] = molecular target: hEDAR-mFc (human) (UniProt Q9UNE0); experiment: sandwich ELISA: hEDAR-mFc coated, anti-human IgG (Fc) CH2-HRP detection; EDA-A1 25 ng/mL, batch 7
# [11] = molecular target: hEDAR-mFc (human) (UniProt Q9UNE0); experiment: sandwich ELISA: hEDAR-mFc coated, anti-human IgG (Fc) CH2-HRP detection; EDA-A1 100 ng/mL with hFc 100 ng/mL, batch 5
# [12] = molecular target: hEDAR-mFc (human) (UniProt Q9UNE0); experiment: sandwich ELISA: hEDAR-mFc coated, anti-human IgG (Fc) CH2-HRP detection; EDA-A1 6.25 ng/mL, batch 7
# [13] = molecular target: hEDAR-mFc (human) (UniProt Q9UNE0); experiment: sandwich ELISA: hEDAR-mFc coated, anti-human IgG (Fc) CH2-HRP detection; EDA-A1 with hFc, nominal 25 ng/mL, batch 7
# [14] = molecular target: hEDAR-mFc (human) (UniProt Q9UNE0); experiment: sandwich ELISA: hEDAR-mFc coated, anti-human IgG (Fc) CH2-HRP detection; EDA-A1 3.13 ng/mL, batch 7
# [15] = molecular target: EDI200 (human); experiment: bridging ECL in NHP serum; antibody 500 ng/mL with 1 µg/mL free EDI200
# [16] = molecular target: EDI200 (human); experiment: bridging ECL in NHP serum; antibody 15.63 ng/mL, signal with 1 µg/mL free EDI200 over signal without
# [17] = molecular target: EDI200 (human); experiment: bridging ECL in NHP serum; antibody 250 ng/mL, signal with 1 µg/mL free EDI200 over signal without
# [18] = molecular target: EDI200 (human); experiment: bridging ECL in NHP serum; antibody 250 ng/mL with 1 µg/mL free EDI200
# [19] = molecular target: EDI200 (human); experiment: bridging ECL (biotin-EDI200/SulfoTag-EDI200) in NHP serum; antibody 31.25 ng/mL
# [20] = molecular target: EDI200 (human); experiment: bridging ECL (biotin-EDI200/SulfoTag-EDI200) in NHP serum; antibody 15.63 ng/mL
# [21] = molecular target: EDI200 (human); experiment: bridging ECL in NHP serum; antibody 125 ng/mL, signal with 1 µg/mL free EDI200 over signal without
# [22] = molecular target: EDI200 (human); experiment: bridging ECL in NHP serum; antibody 31.25 ng/mL, signal with 1 µg/mL free EDI200 over signal without
# [23] = molecular target: EDI200 (human); experiment: bridging ECL in NHP serum; antibody 500 ng/mL, signal with 1 µg/mL free EDI200 over signal without
# [24] = molecular target: EDI200 (human); experiment: bridging ECL (biotin-EDI200/SulfoTag-EDI200) in NHP serum; antibody 125 ng/mL
# [25] = molecular target: EDI200 (human); experiment: bridging ECL in NHP serum; antibody 62.5 ng/mL with 1 µg/mL free EDI200
# [26] = molecular target: EDI200 (human); experiment: bridging ECL (biotin-EDI200/SulfoTag-EDI200) in NHP serum; antibody 62.5 ng/mL
# [27] = molecular target: EDI200 (human); experiment: bridging ECL (biotin-EDI200/SulfoTag-EDI200) in NHP serum; antibody 250 ng/mL
# [28] = molecular target: EDI200 (human); experiment: bridging ECL in NHP serum; antibody 31.25 ng/mL with 1 µg/mL free EDI200
# [29] = molecular target: EDI200 (human); experiment: bridging ECL (biotin-EDI200/SulfoTag-EDI200) in NHP serum; antibody 7.81 ng/mL
# [30] = molecular target: EDI200 (human); experiment: bridging ECL in NHP serum; antibody 62.5 ng/mL, signal with 1 µg/mL free EDI200 over signal without
# [31] = molecular target: EDI200 (human); experiment: bridging ECL in NHP serum; antibody 7.81 ng/mL, signal with 1 µg/mL free EDI200 over signal without
# [32] = molecular target: EDI200 (human); experiment: bridging ECL (biotin-EDI200/SulfoTag-EDI200) in NHP serum; antibody 500 ng/mL; plate NCO 129.4
# [33] = molecular target: EDI200 (human); experiment: bridging ECL in NHP serum; antibody 7.81 ng/mL with 1 µg/mL free EDI200
# [34] = molecular target: EDI200 (human); experiment: bridging ECL in NHP serum; antibody 15.63 ng/mL with 1 µg/mL free EDI200
# [35] = molecular target: EDI200 (human); experiment: bridging ECL in NHP serum; antibody 125 ng/mL with 1 µg/mL free EDI200
# [36] = molecular target: EDI200 (human); experiment: bridging ECL (biotin-EDI200/SulfoTag-EDI200) in NHP serum; Renzo-1 7.81 ng/mL
# [37] = molecular target: EDI200 (human); experiment: bridging ECL in NHP serum; Renzo-1 31.25 ng/mL with 1 µg/mL free EDI200 as competitor
# [38] = molecular target: EDI200 (human); experiment: bridging ECL in NHP serum; Renzo-1 15.63 ng/mL, signal with 1 µg/mL free EDI200 over signal without (Table 17)
# [39] = molecular target: EDI200 (human); experiment: bridging ECL in NHP serum; Renzo-1 7.81 ng/mL, signal with 1 µg/mL free EDI200 over signal without (Table 17)
# [40] = molecular target: EDI200 (human); experiment: bridging ECL (biotin-EDI200/SulfoTag-EDI200) in NHP serum; Renzo-1 250 ng/mL
# [41] = molecular target: EDI200 (human); experiment: bridging ECL in NHP serum; Renzo-1 500 ng/mL with 1 µg/mL free EDI200 as competitor; plate NCO 129.4
# [42] = molecular target: EDI200 (human); experiment: bridging ECL (biotin-EDI200/SulfoTag-EDI200) in NHP serum; plate NCO 129.4
# [43] = molecular target: EDI200 (human); experiment: bridging ECL in NHP serum; Renzo-1 15.63 ng/mL with 1 µg/mL free EDI200 as competitor
# [44] = molecular target: EDI200 (human); experiment: bridging ECL in NHP serum; Renzo-1 500 ng/mL, signal with 1 µg/mL free EDI200 over signal without (Table 17)
# [45] = molecular target: EDI200 (human); experiment: bridging ECL (biotin-EDI200/SulfoTag-EDI200) in NHP serum; Renzo-1 31.25 ng/mL
# [46] = molecular target: EDI200 (human); experiment: bridging ECL (biotin-EDI200/SulfoTag-EDI200) in NHP serum; Renzo-1 62.5 ng/mL
# [47] = molecular target: EDI200 (human); experiment: bridging ECL in NHP serum; Renzo-1 125 ng/mL with 1 µg/mL free EDI200 as competitor
# [48] = molecular target: EDI200 (human); experiment: bridging ECL in NHP serum; Renzo-1 62.5 ng/mL with 1 µg/mL free EDI200 as competitor
# [49] = molecular target: EDI200 (human); experiment: bridging ECL (biotin-EDI200/SulfoTag-EDI200) in NHP serum; Renzo-1 500 ng/mL; plate NCO 129.4
# [50] = molecular target: EDI200 (human); experiment: bridging ECL (biotin-EDI200/SulfoTag-EDI200) in NHP serum; Renzo-1 15.63 ng/mL
# [51] = molecular target: EDI200 (human); experiment: bridging ECL (biotin-EDI200/SulfoTag-EDI200) in NHP serum; Renzo-1 125 ng/mL
# [52] = molecular target: EDI200 (human); experiment: bridging ECL in NHP serum; Renzo-1 7.81 ng/mL with 1 µg/mL free EDI200 as competitor
# [53] = molecular target: EDI200 (human); experiment: bridging ECL in NHP serum; Renzo-1 62.5 ng/mL, signal with 1 µg/mL free EDI200 over signal without (Table 17)
# [54] = molecular target: EDI200 (human); experiment: bridging ECL in NHP serum; Renzo-1 250 ng/mL with 1 µg/mL free EDI200 as competitor
# [55] = molecular target: EDI200 (human); experiment: bridging ECL in NHP serum; Renzo-1 31.25 ng/mL, signal with 1 µg/mL free EDI200 over signal without (Table 17)
# [56] = molecular target: EDI200 (human); experiment: bridging ECL in NHP serum; Renzo-1 250 ng/mL, signal with 1 µg/mL free EDI200 over signal without (Table 17)
# [57] = molecular target: EDI200 (human); experiment: bridging ECL in NHP serum; Renzo-1 125 ng/mL, signal with 1 µg/mL free EDI200 over signal without (Table 17)
substance,measurement,setting,value
Recombinant human Ectodysplasin A1 (from UniProt Q92838 160-391) (ligand),Mean OD,[1],0.14 OD
same,Mean OD,[2],0.125 OD
same,Mean Conc. (read as EDI200 from the standard curve),[3],4.77 ng/mL
same,Mean OD,[3],0.275 OD
same,Mean OD,[4],0.15 OD
same,Mean OD,[5],0.214 OD
same,Mean OD,[6],0.121 OD
same,Mean Conc. (read as EDI200 from the standard curve),[7],5.43 ng/mL
same,Mean OD,[7],0.292 OD
same,Mean OD,[8],0.234 OD
same,Mean Conc. (read as EDI200 from the standard curve),[9],6.14 ng/mL
same,Mean OD,[9],0.316 OD
same,Mean OD,[10],0.18 OD
same,Mean Conc. (read as EDI200 from the standard curve),[11],5.34 ng/mL
same,Mean OD,[11],0.289 OD
same,Mean OD,[12],0.119 OD
same,Mean OD,[13],0.18 OD
same,Mean OD,[14],0.116 OD
mouse anti-human CD106 IgG1 antibody,Mean Signal,[15],81 signal (ECL)
same,Drug/Non-drug Ratio,[16],0.91
same,Drug/Non-drug Ratio,[17],0.96
same,Mean Signal,[18],80 signal (ECL)
same,Mean Signal,[19],81 signal (ECL)
same,Mean Signal,[20],81 signal (ECL)
same,Drug/Non-drug Ratio,[21],0.93
same,Drug/Non-drug Ratio,[22],0.93
same,Drug/Non-drug Ratio,[23],0.95
same,Mean Signal,[24],82 signal (ECL)
same,Mean Signal,[25],76 signal (ECL)
same,Mean Signal,[26],81 signal (ECL)
same,Mean Signal,[27],83 signal (ECL)
same,Mean Signal,[28],76 signal (ECL)
same,Mean Signal,[29],85 signal (ECL)
same,Drug/Non-drug Ratio,[30],0.94
same,Drug/Non-drug Ratio,[31],0.93
same,Mean Signal,[32],86 signal (ECL)
same,Mean Signal,[33],80 signal (ECL)
same,Mean Signal,[34],74 signal (ECL)
same,Mean Signal,[35],76 signal (ECL)
Mouse monoclonal (Renzo-1) to EDA (antibody),Mean Signal,[36],89 signal (ECL)
same,Mean Signal,[37],80 signal (ECL)
same,Drug/Non-drug Ratio,[38],0.77
same,Drug/Non-drug Ratio,[39],0.91
same,Mean Signal,[40],495 signal (ECL)
same,Mean Signal,[41],171 signal (ECL)
same,sensitivity (lowest antibody concentration with mean signal above the plate NCO),[42],62.5 ng/mL
same,Mean Signal,[43],78 signal (ECL)
same,Drug/Non-drug Ratio,[44],0.18
same,Mean Signal,[45],129 signal (ECL)
same,Mean Signal,[46],176 signal (ECL)
same,Mean Signal,[47],85 signal (ECL)
same,Mean Signal,[48],75 signal (ECL)
same,Mean Signal,[49],949 signal (ECL)
same,Mean Signal,[50],102 signal (ECL)
same,Mean Signal,[51],306 signal (ECL)
same,Mean Signal,[52],81 signal (ECL)
same,Drug/Non-drug Ratio,[53],0.43
same,Mean Signal,[54],89 signal (ECL)
same,Drug/Non-drug Ratio,[55],0.62
same,Drug/Non-drug Ratio,[56],0.18
same,Drug/Non-drug Ratio,[57],0.28

# Reference: US20160272694A1
